In patent publication US10684273B2, “Use of phosphatidylinositol phosphate-binding material for apoptosis detection” (GIL MEDICAL CENTER, priority 2015, dated 2020):
“Also recorded” adds a separate entry of the source. Blank lines part the entries; values can stand above or below the molecule they belong to.

Tests used:
liver Kupffer cells = assay: phagocytosis of IC-InsP6 by liver Kupffer cells after intra-arterial injection; assay type: in vivo, C57BL/6 mice
[1] = system: Thioglycollate-elicited peritoneal macrophages (Thio-pMacs); assay: IC-InsP6 absorption by peritoneal macrophages (Prussian blue staining); assay type: cell-based, C57BL/6 mouse; details: compared to non-activated Thio-pMacs; 0 mM to 0.5 mM, 4 hours; concentration-dependent
Protocol: Thioglycollate-elicited peritoneal macrophages (Thio-pMacs) in a C57BL/6 mouse were obtained. Specifically, 2 mL of 3% Brewer thioglycollate medium (Difco, Detroit, Mich., USA) was intraperitoneally injected the mouse, and 3 to 5 days thereafter, the peritoneum of the mouse was washed with cold PBS to recover peritoneal macrophages. The cells were centrifuged at 1,500 rpm for 5 minutes. The resulting pellet was washed 3 times with PBS, resuspended in DMEM medium containing 10% FBS (Gibco), and cultured on the cover glass in a 6-well plate (Nunc, Fisher Scientific) at a density of 1×10^5 cells/mL. The cells were cultured by adhesion culture, and the slides were washed to remove the suspending cells. Then, the adhered Thio-pMacs cells were cultured according to the presence of LPS (0.5 μg/mL) for 6 hours. LPS induces the activation of Thio-pMacs.
After cultivation, the cells were treated with IC-InsP6 (0 mM to 0.5 mM) for 4 hours. The cells were washed with PBS to remove free IC-InsP6, fixed with formalin (10% neutral buffered) for 5 minutes, and stained as described below for the confirmation of intracellular iron absorption. Specifically, the cover glass was placed in a staining solution (5% potassium ferrocyanide and 12% HCl) for 1 hour, washed 3 times with distilled water, and stained with Prussian blue. […]

RAW264.7 macrophages = assay: IC-InsP6 absorption by RAW264.7 macrophages; assay type: cell-based; details: treatment concentration-dependent
[2] = system: PtdIns(3,4,5)P3 externalized on the surface of apoptotic HeLa and CHO cells; assay: binding of recombinant Akt protein to apoptotic cells (confocal microscopy); assay type: cell-based; details: through PH domain; 2 μg protein
Protocol: First, HeLa and CHO cells were treated with 4 μM camptothecin for 6 hours to induce apoptosis, fixed with formalin (10% neutral buffered) for 5 minutes, and washed twice with PBS. Then, the cells were treated with the serum-free protein blocking solution (Dako), and cultured along with 2 μg of recombinant Akt proteins (Millipore) for 30 minutes. Then, the HeLa and CHO cells, which were bound to Akt proteins, were treated with rabbit anti-CD14 antibody (HPA00212; 1:200, Sigma-Aldrich USA) or the anti-Akt pleckstrin homology (PH) domain antibody of monoclonal mouse (05-591, 1:100, Millipore) for 30 minutes, and treated with FITC-labeled secondary antibody for 30 minutes. Then, the resultant was counterstained with DAPI to visualize nuclei, and counterstained with propidium iodide to distinguish apoptotic cells.
(§1) Then, the cells were placed on a microscope and photographed by the Zeiss LSM 710 laser-scanning confocal microscope (Carl Zeiss) with appropriate excitation using a release filter set. The images were photographed using 40× oil immersion lens. The fluorescence intensity of the unprocessed original images was quantified using ZEN 2010 software (Carl Zeiss).

apoptotic CHO cells = assay: detection of apoptosis by recombinant PH domain and annexin V (confocal microscopy); assay type: cell-based; details: 4 μM camptothecin 6 hours
Protocol: (§2) First, apoptosis was induced in CHO cells by treating them with 4 μM camptothecin for 6 hours, and the cells were fixed with formalin (10% neutral buffered) for 5 minutes and washed twice with PBS. Then, the cells were treated with a serum-free protein blocking solution (DAKO) along with the recombinant PH domain prepared in Example 5-1 for 30 minutes. Then, the cells were treated with the anti-Akt PH domain antibody of monoclonal mouse (05-591, 1:100, Millipore) and then treated with FITC-labeled secondary antibody for 30 minutes. Then, the cells were washed with PBS, fixed with formalin (10% neutral buffered) for 5 minutes, and stained. The cells were counterstained with propidium iodide to distinguish apoptotic cells.
(§3) The recombinant annexin V prepared in Example 5-1 was subjected to an experiment in the same manner and analyzed by FACS.
as §1

apoptotic cells = assay: flow cytometer analysis of apoptosis; assay type: cell-based; details: FIG. 14
Protocol: as §2, §3

[3] = protein-lipid overlay assay, other lipids on the strip; assay type: binding; details: mixed with 5 μM CaCl2
Protocol: (§4) To confirm whether the inositol phosphpate groups of various phosphatidylinositol phosphates directly bind to macrophage CD14 receptors, a protein-lipid overlay assay was performed using the full-length recombinant human CD14 proteins and variant CD14 proteins prepared in Example 2-2. PIP strips or PIP arrays were purchased from Echelon Biosciences.
(§5) After culturing a cell membrane for 15 minutes, non-specific bindings to the cell membrane was blocked using TBS-T (50 mM Tris, 0.15 M NaCl, and 0.05% Tween-20, pH 7.4, EDTA-free protease inhibitor cocktail; Roche, Germany) containing 3% BSA. After the blocking, the cell membrane was incubated along with each of the purified recombinant CD14 proteins (100 ρmol) for 30 minutes, washed 3 times with PBS, incubated again with anti-CD14 (rabbit, HPA002127; Sigma-Aldrich), and incubated with horseradish peroxidase (HRP)-labeled secondary antibody (goat; HAF007; R&D Systems) for 30 minutes. The binding was detected using the ImageQuant LAS 4000 (Fujifilm, Japan). As described in Toda et al. (Mol Cell Biol 32, 118, 2012), PIP-affinity bead pulldowns were performed.
To confirm whether the PKCβ1 C2 domain-Myc protein and the inositol phosphpate group in various phosphatidylinositol phosphates directly bind to each other, protein-lipid overlay assay and immunoblotting were performed in the same manner as in Example 2-3. […]

[4] = protein-lipid overlay assay and immunoblotting (PIP strips or PIP arrays); assay type: binding; details: mixed with 5 μM CaCl2
Protocol: as §4, §5
To confirm whether the PKCβ1 C2 domain-Myc protein and the inositol phosphpate group in various phosphatidylinositol phosphates directly bind to each other, protein-lipid overlay assay and immunoblotting were performed in the same manner as in Example 2-3. The PIP strip or PIP array was purchased from Echelon Biosciences.
Annexin V, which is known to specifically bind to phosphatidylserine, was subjected to protein-lipid overlay assay and immunoblotting in the same manner as in Example 2-3.

Molecule: Iron-Calcium-InsP6 (phytate) [IC-InsP6]
phagocytosis of IC-InsP6 by CD14-defective Kupffer cells (liver Kupffer cells; CD14-defective mice, intra-arterial injection): hardly phagocytized
phagocytosis of IC-InsP6 by wild-type Kupffer cells (liver Kupffer cells; wild-type mice): effectively phagocytized
phagocytosis of IC-InsP6 by LPS-activated Thio-pMacs [1]: effective phagocytosis
phagocytosis of IC-InsP6 by RAW264.7 macrophages (RAW264.7 macrophages): effective phagocytosis

Molecule: recombinant Akt protein: recombinant Akt proteins (Millipore), PH domain-containing protein
binding to PtdIns(3,4,5)P3 externalized on the surface of apoptotic cells [2]: binds; also recorded: can bind

binding to phosphatidylserine [3]: did not bind
binding to PI(3,5)P2, PI(4,5)P2, and PI(3,4,5)P3 [4]: strongest bindings
binding to PI(5)P, PI(3)P, PI(4)P and PI(3,4)P2 [4]: also shown to bind
binding to various kinds of phosphatidylinositol phosphates ([4]; 100 ρmol): shown to bind
B1: annexin V: human annexin V (1st to 319th amino acids) cloned into pET28a, expressed in E. coli, 37 kDa (protein, UniProt P08758 1-319, looked up, fragment)
chain: MAQVLRGTVTDFPGFDERADAETLRKAMKGLGTDEESILTLLTSRSNAQRQEISAAFKTLFGRDLLDDLKSELTGKFEKLIVALMKPSRLYDAYELKHALKGAGTNEKVLTEIIASRTPEELRAIKQVYEEEYGSSLEDDVVGDTSGYYQRMLVVLLQANRDPDAGIDEAQVEQDAQALFQAGELKWGTDEEKFITIFGTRSVSHLRKVFDKYMTISGFQIEETIDRETSGNLEQLLLAVVKSIRSIPAYLAETLYYAMKGAGTDDHTLIRVMVSRSEIDLFNIRKEFRKNFATSLYSMIKGDTSGDYKKALLLLCGED
binding on the surfaces of apoptotic cells / detection of apoptosis (apoptotic CHO cells; FIG. 13): bind at different locations from each other
detection in apoptotic cells by flow cytometer (apoptotic cells): simultaneously detected

B2: PH domain: human Akt PH domain (1st to 144th amino acids) cloned into pET28a, expressed in E. coli, 21 kDa (protein, UniProt P31749 1-144, looked up, fragment)
chain: MSDVAIVKEGWLHKRGEYIKTWRPRYFLLKNDGTFIGYKERPQDVDQREAPLNNFSVAQCQLMKTERPRPNTFIIRCLQWTTVIERTFHVETPEEREEWTTAIQTVADGLKKQEEEEMDFRSGSPSDNSGAEEMEVSLAKPKHR
modifications: PH domain
notes: human Akt PH domain (1st to 144th amino acids) cloned into pET28a, expressed in E. coli, 21 kDa
binding on the surfaces of apoptotic cells / detection of apoptosis (apoptotic CHO cells; FIG. 13): bind at different locations from each other
binding on the surfaces of apoptotic cells / detection of apoptosis (apoptotic CHO cells; FIG. 13, listed as recombinant PH domain): can detect apoptosis
detection in apoptotic cells by flow cytometer (apoptotic cells): appeared
